Laboratory results taken from US20040091855A1, “Method for production of antivirals by use of HIV-derived HR1 peptides, and trimers formed therefrom” (priority 2002, published 2004).

Legend:
[1] = target: HIV-1 gp41 of strain HIV IIIB (on infectious virus) (HIV-1 strain HIVIIIB), P04578; experiment: cell-based or functional assay
[2] = target: HR2 peptide having the amino acid sequence of SEQ ID NO:33 (HIV-1); experiment: surface plasmon resonance (Biacore protein chip assay)
[3] = target: synthetic peptide having the amino acid sequence of SEQ ID NO:36 (trimers formed therefrom) (HIV-1 (HIVIIIB)); experiment: fluorescence polarization competition; 50 nM trimers of SEQ ID NO:36, 0.2 nM fluorescein-labeled HR2 peptide as competitor

QARQLVSGLVQQQNNILRALEATQHAVQALVWGVKQLQARVLALERYIK (modifications not checked) [synthetic peptide having the amino acid sequence of SEQ ID NO:35]
Antiviral activity against HIV IIIB, IC50 (MAGI/cMAGI infectivity assay) [1]: 0.14 µg/mL
Antiviral activity against HIV IIIB, IC90 (MAGI/cMAGI infectivity assay) [1]: 0.69 µg/mL
Kd [2]: 21.8 nM

QARQLVSGLVQQQNNILRALEATQHAVQALVWGVRQLQARVLALERYIK (modifications not checked) [synthetic peptide having the amino acid sequence of SEQ ID NO:37]
Antiviral activity against HIV IIIB, IC50 (MAGI/cMAGI infectivity assay) [1]: < 0.78 µg/mL

QARQLVSGLVQQQNNILRALEATQHLVQLLVWGVKQLQARVLALERYIK (modifications not checked) [peptide having the amino acid sequence of SEQ ID NO:41]
Antiviral activity against HIV IIIB, IC50 (MAGI/cMAGI infectivity assay) [1]: 3.89 µg/mL
Antiviral activity against HIV IIIB, IC90 (MAGI/cMAGI infectivity assay) [1]: 14.5 µg/mL

QQQNNLLRAIEAQQHLLQLTVWGIKQLQARILAVERYLKDQ (modifications not checked) [HR1 peptide of native sequence having the amino acid sequence of SEQ ID NO:27]
Antiviral activity vs. HIV IIIB, IC50 (MAGI/cMAGI infectivity assay) [1]: 4.69 µg/mL
Antiviral activity vs. HIV IIIB, IC90 (MAGI/cMAGI infectivity assay) [1]: 23.2 µg/mL

QQQNNLLRAIEAQQHLLQLTVFGIKQLQARILAVERYLKDQ (modifications not checked) [synthetic peptide having the amino acid sequence of SEQ ID NO:43]
Antiviral activity vs. HIV IIIB, IC50 (MAGI/cMAGI infectivity assay) [1]: 1.34 µg/mL
Antiviral activity vs. HIV IIIB, IC90 (MAGI/cMAGI infectivity assay) [1]: 3.81 µg/mL

QQQNNLLRAIEAQQHLLQLTAWGIKQLQARILAVERYLKDQ (modifications not checked) [synthetic peptide having the amino acid sequence of SEQ ID NO:29]
Antiviral activity vs. HIV IIIB, IC50 (MAGI/cMAGI infectivity assay) [1]: 2.81 µg/mL
Antiviral activity vs. HIV IIIB, IC90 (MAGI/cMAGI infectivity assay) [1]: 5.86 µg/mL

B1: synthetic peptide having the amino acid sequence of SEQ ID NO:39 (peptide)
peptide: QARQLVSGLVQQQNNILRALEAQQHALQATVWGIKQLQARVLALERYIKDQ
modifications: not checked
Antiviral activity against HIV IIIB, IC50 (MAGI/cMAGI infectivity assay) [1]: 0.26 µg/mL
Antiviral activity against HIV IIIB, IC90 (MAGI/cMAGI infectivity assay) [1]: 1.2 µg/mL

WMEWDREINNYTSLIHSLIEESQNQQEKNEQELLEL (modifications not checked) [HR2 peptide having the amino acid sequence of SEQ ID NO:33]
IC50 [3]: 68 nM

B2: synthetic peptide having the amino acid sequence of SEQ ID NO:38 (peptide)
peptide: QARQLLSGIVQQQNNLLRAIEATQHAVQALVWGVKQLQARVLALERYIKDQ
modifications: not checked
Antiviral activity against HIV IIIB, IC50 (MAGI/cMAGI infectivity assay) [1]: 0.18 µg/mL
Antiviral activity against HIV IIIB, IC90 (MAGI/cMAGI infectivity assay) [1]: 0.88 µg/mL
